Source: CN114685666A (ZHEJIANG NANOMETER ANTIBODY TECH CENTER LIMITED COMPANY, dated 2022)

How the values were obtained:
[1] = target: T1, 人MSLN.His抗原 (MSLN.His蛋白, 义翘神州科技股份有限公司, MSN-H5223) (human, UniProt Q13421 296-580, limits assumed); assay: SPR (Biacore), antibody captured on protein A chip, MSLN.His as analyte at 5 concentrations
T1 construct: Bought protein; not shown: His tag

[2] = target: MSLN expressed on HEK293T cells (HEK293T MSLN细胞) (UniProt Q13421); assay: flow cytometry on HEK293T cells expressing MSLN, anti-human IgG PE detection

T1 sequence (Q13421 other isoform, or with tags, fused parts or gaps limits assumed): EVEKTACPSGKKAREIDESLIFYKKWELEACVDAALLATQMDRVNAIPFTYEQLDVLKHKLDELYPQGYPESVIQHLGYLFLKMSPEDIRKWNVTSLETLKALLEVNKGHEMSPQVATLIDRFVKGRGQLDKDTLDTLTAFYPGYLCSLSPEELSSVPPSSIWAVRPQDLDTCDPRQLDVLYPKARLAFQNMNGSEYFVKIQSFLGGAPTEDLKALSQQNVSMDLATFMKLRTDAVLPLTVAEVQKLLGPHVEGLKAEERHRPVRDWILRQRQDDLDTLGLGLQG

Kd [1]: 0.264 nM
koff [1]: 1.82e-05 s⁻¹
kon [1]: 69000 M⁻¹ s⁻¹
EC50 [2]: 3.68 nM
B1: M2339 (重链抗体, 纳米抗体构建到pCDNA3.4-IgG4载体上表达) (Fc fusion)
heavy: QLQLGASGGGLVQPGGSLRLSCALSGFTLRELDEFAIGWFRQAPGKEREGVSCISGTGGITHYADSVKGRFTISRDIAKTTVYLQMNSLNSEDTAVYYCAADERCTDRLIRPPTYWGQGTQVTVSS
notes: also called 候选抗体; not shown: IgG4 constant part from the vector pCDNA3.4-IgG4
